For this test, the target named is soluble prefusion-stabilized trimeric SARS-CoV-2 spike protein (SARS-CoV-2, Wuhan-Hu-1 (MN908947.3), UniProt P0DTC2, stabilised). Kind of test: cryo-EM structure.

Here are results for 1 molecule from publication doi:10.1101/2020.09.30.318972 (bioRxiv, 2020).

B1: LY-CoV555 Fab (Fab, V domains shown)
VH: QVQLVQSGAEVKKPGSSVKVSCKASGGTFSNYAISWVRQAPGQGLEWMGRIIPILGIANYAQKFQGRVTITADKSTSTAYMELSSLRSEDTAVYYCARGYYEARHYYYYYAMDVWGQGTAVTVSS
VL: not shown
In the case of B1, the binding result was “binds”.
